The values below come from patent US20210253718A1, “FRIZZLED5 PROTEIN-BINDING AGENTS” (Modmab Therapeutics Corporation, priority 2016, published 2021).

Test [1] concerns the target T1, FZD10 CRD (Homo sapiens, UniProt Q9ULW2).
T1 construct: 30-156; GPI anchor signal (C); expressed in transfected cells; host or cells: CHO cells, lentiviral pLenti-puro
T1 sequence (Q9ULW2 30-156): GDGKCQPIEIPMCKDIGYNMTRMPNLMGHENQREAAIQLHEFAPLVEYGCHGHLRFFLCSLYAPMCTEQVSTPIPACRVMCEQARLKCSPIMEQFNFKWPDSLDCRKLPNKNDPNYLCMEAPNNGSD
Description: Immunofluorescence of anti-FZD5 Fab binding to CHO cells overexpressing Frizzled CRD. Also on record: key: −: no binding; +: very weak binder; ++: weak binder; +++: good binder; ++++: very good binder. In a few lines: (§1)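 CHO panel, 10 lines, each w/ one human FZD CRD-myc-GPI (lentiviral). Anti-FZD5 Fabs applied; surface binding scored by IF, cross-checked by FACS.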

For test [2], the target named is T2, FZD3 CRD (Homo sapiens, UniProt Q9NPG1).
T2 construct: CRD of FZD1, FZD2, FZD3, FZD4, FZD5, FZD6, FZD7, FZD8, FZD9 or FZD10; GPI anchor signal (C); expressed in transfected cells; host or cells: CHO cells, lentiviral pLenti-puro
T2 sequence (Q9NPG1 23-136 limits assumed): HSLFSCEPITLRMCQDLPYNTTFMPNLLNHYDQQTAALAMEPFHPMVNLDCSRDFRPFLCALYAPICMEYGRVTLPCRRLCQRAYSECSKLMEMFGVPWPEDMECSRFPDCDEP
The description is as above. Also on record: key: −: no binding; +: very weak binder; ++: weak binder; +++: good binder; ++++: very good binder. In a few lines: as §1

Test [3] deals with T3, FZD4 CRD (Homo sapiens, UniProt Q9ULV1).
T3 construct: E42-V167; GPI anchor signal (C); expressed in transfected cells; host or cells: CHO cells, lentiviral pLenti-puro
T3 sequence (Q9ULV1 42-167): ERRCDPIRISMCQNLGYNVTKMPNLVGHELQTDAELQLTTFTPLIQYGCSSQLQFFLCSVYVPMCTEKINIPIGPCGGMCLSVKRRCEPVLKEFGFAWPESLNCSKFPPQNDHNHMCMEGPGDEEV
Described as above. Also on record: key: −: no binding; +: very weak binder; ++: weak binder; +++: good binder; ++++: very good binder. In a few lines:
as §1

Test [4] addresses T4, FZD5 CRD (Homo sapiens, UniProt Q13467).
T4 construct: K29-T156; GPI anchor signal (C); expressed in transfected cells; host or cells: CHO cells, lentiviral pLenti-puro
T4 sequence (Q13467 29-156): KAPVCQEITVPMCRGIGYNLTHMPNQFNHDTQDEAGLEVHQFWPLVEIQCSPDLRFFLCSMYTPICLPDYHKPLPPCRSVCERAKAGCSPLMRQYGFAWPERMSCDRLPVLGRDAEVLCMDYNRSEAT
The test is described as above. More on the design: key: −: no binding; +: very weak binder; ++: weak binder; +++: good binder; ++++: very good binder. In a few lines: as §1

Test [5] deals with T5, FZD6 CRD (Homo sapiens, UniProt O60353).
T5 construct: S20-P146; GPI anchor signal (C); expressed in transfected cells; host or cells: CHO cells, lentiviral pLenti-puro
T5 sequence (O60353 20-146): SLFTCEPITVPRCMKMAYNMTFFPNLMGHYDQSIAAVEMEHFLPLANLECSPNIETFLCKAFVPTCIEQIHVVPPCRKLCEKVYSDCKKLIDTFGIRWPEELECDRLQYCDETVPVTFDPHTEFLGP
The test is described as above. Also on record: key: −: no binding; +: very weak binder; ++: weak binder; +++: good binder; ++++: very good binder. Summed up: as §1

The target in test [6] is T6, FZD8 CRD (Homo sapiens, UniProt Q9H461).
T6 construct: K31-D155; GPI anchor signal (C); expressed in transfected cells; host or cells: CHO cells, lentiviral pLenti-puro
T6 sequence (Q9H461 31-155): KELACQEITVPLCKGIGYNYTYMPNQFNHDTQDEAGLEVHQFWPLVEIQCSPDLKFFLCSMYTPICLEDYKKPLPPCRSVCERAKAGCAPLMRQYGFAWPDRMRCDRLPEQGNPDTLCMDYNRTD
The test is described as above. More on the design: key: −: no binding; +: very weak binder; ++: weak binder; +++: good binder; ++++: very good binder. In a few lines: as §1

The test system of test [7] is ASPC-1 cells. Description: Effect of anti-FZD5 Fabs on proliferation of pancreatic cancer cell lines (percent growth inhibition). The settings on record: Fab 2 μg/ml. It is filed as cell-based, human.
Test [8] has as its system RWP1 cells. The test is described as above. The settings on record: Fab 2 μg/ml. In kind it is cell-based, human.

B1: Fab-2928: anti-FZD5 Fab with antibody variable region Fv-2928; CDR SEQ ID NOs: 35, 36, 67, 105, 143, 175 (antibody, V domains shown)
VH: EVQLVESGGGLVQPGGSLRLSCAASGFNISYSSIHWVRQAPGKGLEWVASIYPSYSSTYYADSVKGRFTISADTSKNTAYLQMNSLRAEDTAVYYCARYYAMDYWGQGTLVTVSS
VL: DIQMTQSPSSLSASVGDRVTITCRASQSVSSAVAWYQQKPGKAPKLLIYSASSLYSGVPSRFSGSRSGTDFTLTISSLQPEDFATYYCQQAFYYPITFGQGTKVEIK
For the molecule B1, the “Immunofluorescence binding, Frizzled CRD overexpressed on CHO cells: FZD10” value (shortened to “Immunofluorescence binding … FZD10”) in test [1] was “−”. Moreover, in test [2], the “Immunofluorescence binding, Frizzled CRD overexpressed on CHO cells: FZD3” value (“Immunofluorescence binding … FZD3” for short) was “−”. Further, in test [3], the “Immunofluorescence binding, Frizzled CRD overexpressed on CHO cells: FZD4” value (shortened to “Immunofluorescence binding … FZD4”) is listed as “−”. Moreover, the “Immunofluorescence binding, Frizzled CRD overexpressed on CHO cells: FZD5” value (“Immunofluorescence binding … FZD5” below) in test [4] is given as “++++”. Moreover, the “Immunofluorescence binding, Frizzled CRD overexpressed on CHO cells: FZD6” value (from here on “Immunofluorescence binding … FZD6”) in test [5] is given as “−”. For the same molecule, the “Immunofluorescence binding, Frizzled CRD overexpressed on CHO cells: FZD8” value (shortened to “Immunofluorescence binding … FZD8”) in test [6] was “−”. The “percent growth inhibition, ASPC-1 2 μg/ml” value in test [7] came out at 2.33%. Further, the “percent growth inhibition, RWP1 2 μg/ml” value in test [8] was −8.19%.

B2: Fab-2925: anti-FZD5 Fab with antibody variable region Fv-2925; CDR SEQ ID NOs: 35, 36, 64, 102, 140, 172 (antibody, V domains shown)
VH: EVQLVESGGGLVQPGGSLRLSCAASGFNLSYSSMHWVRQAPGKGLEWVASIYPSYGSTYYADSVKGRFTISADTSKNTAYLQMNSLRAEDTAVYYCARYGYFGLDYWGQGTLVTVSS
VL: DIQMTQSPSSLSASVGDRVTITCRASQSVSSAVAWYQQKPGKAPKLLIYSASSLYSGVPSRFSGSRSGTDFTLTISSLQPEDFATYYCQQAWVYASLFTFGQGTKVEIK
B2: the “Immunofluorescence binding … FZD10” value in test [1] was “−”. Moreover, in test [2], the “Immunofluorescence binding … FZD3” value was “−”. Besides, in test [3], the “Immunofluorescence binding … FZD4” value is given as “−”. The “Immunofluorescence binding … FZD5” value in test [4] is listed as “++++”. The “Immunofluorescence binding … FZD6” value in test [5] is reported as “−”. For the same molecule, the “Immunofluorescence binding … FZD8” value in test [6] was “−”. Moreover, the “percent growth inhibition, ASPC-1 2 μg/ml” value in test [7] is −0.26%. In addition, the “percent growth inhibition, RWP1 2 μg/ml” value in test [8] was 30.69%.

B3: Fab-2927: anti-FZD5 Fab with antibody variable region Fv-2927; CDR SEQ ID NOs: 35, 36, 66, 104, 142, 174 (antibody, V domains shown)
VH: EVQLVESGGGLVQPGGSLRLSCAASGFNIYYSSMHWVRQAPGKGLEWVASIYPSYGYTSYADSVKGRFTISADTSKNTAYLQMNSLRAEDTAVYYCARYGYYGFDYWGQGTLVTVSS
VL: DIQMTQSPSSLSASVGDRVTITCRASQSVSSAVAWYQQKPGKAPKLLIYSASSLYSGVPSRFSGSRSGTDFTLTISSLQPEDFATYYCQQWGSHGYLITFGQGTKVEIK
Consider B3, for which the “Immunofluorescence binding … FZD10” value in test [1] is “−”. Also, in test [2], the “Immunofluorescence binding … FZD3” value is listed as “−”. The “Immunofluorescence binding … FZD4” value in test [3] is recorded as “−”. Besides, the “Immunofluorescence binding … FZD5” value in test [4] was “++++”. Moreover, the “Immunofluorescence binding … FZD6” value in test [5] is given as “−”. The “Immunofluorescence binding … FZD8” value in test [6] is “+”. The “percent growth inhibition, ASPC-1 2 μg/ml” value in test [7] came out at 12.47%. The “percent growth inhibition, RWP1 2 μg/ml” value in test [8] came to 46.02%.

B4: Fab-2932: anti-FZD5 Fab with antibody variable region Fv-2932; CDR SEQ ID NOs: 35, 36, 71, 108, 147, 153 (antibody, V domains shown)
VH: EVQLVESGGGLVQPGGSLRLSCAASGFNISYSYMHWVRQAPGKGLEWVASIYSSYSSTSYADSVKGRFTISADTSKNTAYLQMNSLRAEDTAVYYCARGALDYWGQGTLVTVSS
VL: DIQMTQSPSSLSASVGDRVTITCRASQSVSSAVAWYQQKPGKAPKLLIYSASSLYSGVPSRFSGSRSGTDFTLTISSLQPEDFATYYCQQWYGSFALITFGQGTKVEIK
B4: in test [1], the “Immunofluorescence binding … FZD10” value is reported as “−”. Besides, in test [2], the “Immunofluorescence binding … FZD3” value was “−”. Also, the “Immunofluorescence binding … FZD4” value in test [3] is “−”. Moreover, the “Immunofluorescence binding … FZD5” value in test [4] is “++++”. Also, in test [5], the “Immunofluorescence binding … FZD6” value was “−”. In addition, the “Immunofluorescence binding … FZD8” value in test [6] is recorded as “+”. Besides, in test [7], the “percent growth inhibition, ASPC-1 2 μg/ml” value worked out at 28.71%. Also, the “percent growth inhibition, RWP1 2 μg/ml” value in test [8] amounted to 32.22%.

B5: Fab-2929: anti-FZD5 Fab with antibody variable region Fv-2929; CDR SEQ ID NOs: 35, 36, 68, 106, 144, 162 (antibody, V domains shown)
VH: EVQLVESGGGLVQPGGSLRLSCAASGFNISYYYIHWVRQAPGKGLEWVASIYPSSSSTSYADSVKGRFTISADTSKNTAYLQMNSLRAEDTAVYYCARGAMDYWGQGTLVTVSS
VL: DIQMTQSPSSLSASVGDRVTITCRASQSVSSAVAWYQQKPGKAPKLLIYSASSLYSGVPSRFSGSRSGTDFTLTISSLQPEDFATYYCQQWYSSYGLITFGQGTKVEIK
For the molecule B5, the “Immunofluorescence binding … FZD10” value in test [1] is “−”. In test [2], the “Immunofluorescence binding … FZD3” value was “−”. Further, the “Immunofluorescence binding … FZD4” value in test [3] is “−”. In addition, the “Immunofluorescence binding … FZD5” value in test [4] is “++++”. For the same molecule, in test [5], the “Immunofluorescence binding … FZD6” value was “−”. Further, in test [6], the “Immunofluorescence binding … FZD8” value is “−”. Besides, the “percent growth inhibition, ASPC-1 2 μg/ml” value in test [7] is on record as 41.68%. For the same molecule, the “percent growth inhibition, RWP1 2 μg/ml” value in test [8] is listed as 0.41%.

B6: Fab-2930: anti-FZD5 Fab with antibody variable region Fv-2930; CDR SEQ ID NOs: 35, 36, 69, 107, 145, 153 (antibody, V domains shown)
VH: EVQLVESGGGLVQPGGSLRLSCAASGFNLSYYYIHWVRQAPGKGLEWVASIYPYSGSTSYADSVKGRFTISADTSKNTAYLQMNSLRAEDTAVYYCARGALDYWGQGTLVTVSS
VL: DIQMTQSPSSLSASVGDRVTITCRASQSVSSAVAWYQQKPGKAPKLLIYSASSLYSGVPSRFSGSRSGTDFTLTISSLQPEDFATYYCQQWYGPYLITFGQGTKVEIK
For the molecule B6, the “Immunofluorescence binding … FZD10” value in test [1] is recorded as “−”. Moreover, the “Immunofluorescence binding … FZD3” value in test [2] was “−”. Also, in test [3], the “Immunofluorescence binding … FZD4” value is recorded as “−”. For the same molecule, in test [4], the “Immunofluorescence binding … FZD5” value is reported as “++++”. For the same molecule, in test [5], the “Immunofluorescence binding … FZD6” value is recorded as “−”. Moreover, the “Immunofluorescence binding … FZD8” value in test [6] was “+”. Besides, the “percent growth inhibition, ASPC-1 2 μg/ml” value in test [7] is 21.31%. Besides, in test [8], the “percent growth inhibition, RWP1 2 μg/ml” value is listed as 17.91%.
